Laboratory results reported in patent publication US20170369523A1, “TEMPLATE-FIXED BETA-HAIRPIN PEPTIDOMIMETICS THAT ARE LIGANDS FOR G-PROTEIN-COUPLED RECEPTORS (GPCRS) AND ARE MODULATORS OF TRANSCRIPTION FACTORS AND COACTIVATORS” (POLYPHOR AG, priority 2008, published 2017).
Bridge positions count the residues as written; N and C are the ends. Square brackets hold non-standard residues; d marks the D form.

T1: human UTR2 receptor (human, UniProt Q9UKP6 1-389)
T1 sequence (looked up): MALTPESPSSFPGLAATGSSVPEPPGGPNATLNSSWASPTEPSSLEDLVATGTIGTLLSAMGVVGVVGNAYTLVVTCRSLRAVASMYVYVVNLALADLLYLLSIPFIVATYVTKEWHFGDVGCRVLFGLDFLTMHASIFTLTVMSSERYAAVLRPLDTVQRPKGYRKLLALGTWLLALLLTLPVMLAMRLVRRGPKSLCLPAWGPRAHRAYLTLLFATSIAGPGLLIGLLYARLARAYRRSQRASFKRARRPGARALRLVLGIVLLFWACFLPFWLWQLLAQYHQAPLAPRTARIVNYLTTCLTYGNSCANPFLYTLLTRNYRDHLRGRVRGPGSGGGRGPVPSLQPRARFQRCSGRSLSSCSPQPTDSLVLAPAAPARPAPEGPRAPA

B1: Ex. 30 (peptide)
peptide: cyclo(DCFWKYCL[dE]P)
modifications: disulfide 2-7
SMILES: CC(C)C[C@@H]1NC(=O)[C@@H]2CSSC[C@H](NC(=O)[C@H](CC(=O)O)NC(=O)[C@@H]3CCCN3C(=O)[C@@H](CCC(=O)O)NC1=O)C(=O)N[C@@H](Cc1ccccc1)C(=O)N[C@@H](Cc1c[nH]c3ccccc13)C(=O)N[C@@H](CCCCN)C(=O)N[C@@H](Cc1ccc(O)cc1)C(=O)N2
B2: Ex. 31 (peptide)
peptide: cyclo(DCFWKYCV[dP]P)
modifications: disulfide 2-7
B3: Ex. 33 (peptide)
peptide: cyclo(DCYWKYCL[dP]P)
modifications: disulfide 2-7
SMILES: CC(C)C[C@@H]1NC(=O)[C@@H]2CSSC[C@H](NC(=O)[C@H](CC(=O)O)NC(=O)[C@@H]3CCCN3C(=O)[C@H]3CCCN3C1=O)C(=O)N[C@@H](Cc1ccc(O)cc1)C(=O)N[C@@H](Cc1c[nH]c3ccccc13)C(=O)N[C@@H](CCCCN)C(=O)N[C@@H](Cc1ccc(O)cc1)C(=O)N2
B4: Ex. 34 (peptide)
peptide: cyclo(DCF[dW]KYCV[dP]P)
modifications: disulfide 2-7

Biological target: T1, human UTR2 receptor
Experiment: cell-based or functional assay

Binder	EC50% (Ca2+ assay, agonist activity) [nM]
B1	< 2
B2	< 2
B3	< 2
B4	< 2
